Experiments:
[1] = biological target: Campath-1 antigen (partially purified, obtained from a glycolipid extract from human spleen) (human) (UniProt P31358); assay: cell-based or functional assay
[2] = biological target: Campath-1 antigen (partially purified, obtained from a glycolipid extract from human spleen) (human) (UniProt P31358); assay: direct binding ELISA, partially purified Campath-1 antigen coated on wells, detected with biotin anti-rat IgG2b; antibody concentration at 50% maximal binding

Substance: HuVHCAMP(Ser27 to Phe, Ser30 to Thr)-RaIgG2B with rat kappa light chain of YTH 34.5HL (antibody)
- Concentration of antibody in ug/ml at 50% lysis (complement lysis of human lymphocytes with human serum) [1]: 17.6 µg/mL
- EC50 [2]: 2 µg/mL

Substance: HuVHCAMP-RaIgG2B with rat kappa light chain of YTH 34.5HL (antibody)
- EC50 [2]: 27.3 µg/mL

Substance: HuVHCAMP(Ser27 to Phe)-RaIgG2B with rat kappa light chain of YTH 34.5HL (antibody)
- Concentration of antibody in ug/ml at 50% lysis (complement lysis of human lymphocytes with human serum) [1]: 16.3 µg/mL
- EC50 [2]: 1.8 µg/mL
